Laboratory results published in patent publication US20240279318A1 (NANJING LEGEND BIOTECH, published 2024).
Positions count from the first letter of the chain named.

B1: AS170036 VL1VH1 HF101W (scFv)
scFv: QSALTQPRSVSGSPGQSVTISCAGTSSDVGSENYVSWYQQHPGKAPKLMIYQVNKRASGVPDRFSGSKSGNTASLTISGLQAEDEADYYCASYRSSDHNIVFGGGTKLTVLGGGGSGGGGSGGGGSEVQLVESGGGLVQPGGSLRLSCAASGFTFSSYAMSWVRQAPGKGLEWVSTINSGTGSPYYADSVKGRFTISRDNSKNTLYLQMNSLRAEDTAVYYCAKNFWDGSWFLGPPAMDYWGQGTLVTVSSHHHHHH
B2: AS170036 VL1VH1 HG56E (scFv)
scFv: B1 scFv with G182E, W227F
B3: AS170036 VL1VH1 HG56I (scFv)
scFv: B1 scFv with G182I, W227F
B4: AS170036 VL1VH1 HG108F (scFv)
scFv: B1 scFv with W227F, G234F
B5: AS170036 VL1VH1 HF101Y (scFv)
scFv: B1 scFv with W227Y
B6: AS170036 VL1VH1 HG56M (scFv)
scFv: B1 scFv with G182M, W227F
B7: AS170036 VL1VH1 HF106W (scFv)
scFv: B1 scFv with W227F, F232W
B8: AS170036 VL1VH1 HG56P (scFv)
scFv: B1 scFv with G182P, W227F
B9: AS170036 VL1VH1 HG56Q (scFv)
scFv: B1 scFv with G182Q, W227F
B10: AS170036 VL1VH1 HG56T (scFv)
scFv: B1 scFv with G182T, W227F
B11: AS170036 VL1VH1 HG56R (scFv)
scFv: B1 scFv with G182R, W227F
B12: AS170036 VL1VH1 HG56D (scFv)
scFv: B1 scFv with G182D, W227F
B13: AS170036 VL1VH1 HG56W (scFv)
scFv: B1 scFv with G182W, W227F
B14: AS170036 VL1VH1 HG108H (scFv)
scFv: B1 scFv with W227F, G234H
B15: AS170036 VL1VH1 HG108I (scFv)
scFv: B1 scFv with W227F, G234I
B16: AS170036 VL1VH1 HG56V (scFv)
scFv: B1 scFv with G182V, W227F
B17: AS170036 VL1VH1 HG56H (scFv)
scFv: B1 scFv with G182H, W227F
B18: AS170036 VL1VH1 HG56S (scFv)
scFv: B1 scFv with G182S, W227F
B19: AS170036 VL1VH1 HG56K (scFv)
scFv: B1 scFv with G182K, W227F
B20: AS170036 VL1VH1 HG56L (scFv)
scFv: B1 scFv with G182L, W227F

Legend:
[1] = biological target: T1, AFP158/HLA-A*02:01 complex (human); assay: SPR, crude scFv captured;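 further: Peptide–MHC complex flowed at several concentrations over sensorchip-captured scFv, Kd derived from on- and off-rates obtained from the association and dissociation curves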
T1 construct: biotinylated on the BSP by BirA for ELISA and panning; also called biotinylated AFP158/HLA-A*02:01 complex; Bio-AFP158

[2] = biological target: T1, AFP158/HLA-A*02:01 complex; assay: SPR; vs AS170036 VL1VH1;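 further: crude scFv captured on sensor chip, peptide–HLA complex flowed over at several concentrations, KD estimated from association and dissociation kinetic rates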
Protocol: The experiment was carried out as follows. The crude scFv protein were captured onto the sensorchip. Different concentrations (320, 160, 40 nM) of AFP158/HLA-A*02:01 complex flowed over the sensorchip surface, and were allowed to bind the antibody fragment for 100 s followed by injection of the running buffer to allow dissociation of the complex. On-rate (kd) and off-rate (kd) were calculated based on association and dissociation curve, and were used to estimate the equilibrium dissociation constant (KD).

| Binder | Kd [1] | Affinity increase [2] |
| --- | --- | --- |
| B1 | 300 nM | 0.8 fold |
| B2 | 240 nM | 1 fold |
| B3 | 1100 nM | 0.2 fold |
| B4 | 810 nM | 0.3 fold |
| B5 | 210 nM | 1.1 fold |
| B6 | 130 nM | 1.7 fold |
| B7 | 630 nM | 0.4 fold |
| B8 | 1600 nM | 0.1 fold |
| B9 | 240 nM | 1 fold |
| B10 | 340 nM | 0.7 fold |
| B11 | 300 nM | 0.8 fold |
| B12 | 230 nM | 1 fold |
| B13 | 130 nM | 1.7 fold |
| B14 | 660 nM | 0.4 fold |
| B15 | 1000 nM | 0.2 fold |
| B16 | 630 nM | 0.4 fold |
| B17 | 150 nM | 1.5 fold |
| B18 | 160 nM | 1.5 fold |
| B19 | 350 nM | 0.7 fold |
| B20 | 290 nM | 0.8 fold |
